{"source": "patent EP2265632B1", "about": "(Elevation Biotech (Pty) Ltd., dated 2009)", "binders": {"B1": {"name": "12p1 (RINNIPWSEAMM), 12-mer peptide (peptide)", "peptide": "H-RINNIPWSEAMM-NH2", "notes": "Quality control peptide of the SPR assay"}}, "target": "recombinant HIV-1BaL gp120 (HIV-1 BaL)", "experiment": "SPR (Biacore 3000), gp120BaL immobilised on CM5 chip, peptide as analyte"}
{"binder": "B1", "values": [{"measurement": "Kd", "result": 1020, "unit": "nM"}]}
